# Source: US20250340613A1 (JOINT STOCK COMPANY BIOCAD, published 2025)
# T1: IL5R-His, Interleukin-5 receptor subunit alpha (Homo sapiens) aa 22-342 (Homo sapiens, UniProt Q01344 22-342)
# T1 construct: not shown: His tag as the name implies
# T1 sequence (looked up): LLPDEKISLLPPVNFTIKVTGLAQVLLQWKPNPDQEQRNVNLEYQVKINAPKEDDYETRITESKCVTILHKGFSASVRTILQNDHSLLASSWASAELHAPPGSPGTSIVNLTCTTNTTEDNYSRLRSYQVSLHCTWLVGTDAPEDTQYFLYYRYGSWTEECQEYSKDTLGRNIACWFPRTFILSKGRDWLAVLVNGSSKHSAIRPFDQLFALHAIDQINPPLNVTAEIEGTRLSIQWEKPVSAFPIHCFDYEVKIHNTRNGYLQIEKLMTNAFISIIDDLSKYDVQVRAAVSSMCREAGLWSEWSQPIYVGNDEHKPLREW
# T2: hIL4R-His, Interleukin-4 receptor subunit alpha (Homo sapiens) aa 27-227 (Homo sapiens, UniProt P24394 27-227)
# T2 construct: range 27-227; not shown: His tag as the name implies
# T2 sequence (looked up): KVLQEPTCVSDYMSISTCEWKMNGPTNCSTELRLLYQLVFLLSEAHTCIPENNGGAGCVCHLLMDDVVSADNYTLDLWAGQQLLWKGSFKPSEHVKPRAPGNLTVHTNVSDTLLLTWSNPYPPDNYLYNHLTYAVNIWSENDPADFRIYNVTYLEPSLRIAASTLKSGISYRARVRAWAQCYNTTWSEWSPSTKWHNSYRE
# Experiments:
# [1] = molecular target: T1, IL5R-His, Interleukin-5 receptor …; test: BLI Octet RED 384; antibody on ProA sensor, antigen 30 ug/ml
# [2] = molecular target: T3, extracellular domain of the human PD-1 protein (hPD1ex-H6F) (Homo sapiens, UniProt Q15116 21-170); test: BLI Octet RED 384; antibody on ProA sensor, antigen 30 ug/ml (1456 nM); response at end of association
# T3 construct: Molecular weight 20.6 kDa; made in CHO cells; also called hPDlex-H6F; not shown: C-terminal His and FLAG tags
# T3 sequence (Q15116 21-170 limits assumed, form in doubt): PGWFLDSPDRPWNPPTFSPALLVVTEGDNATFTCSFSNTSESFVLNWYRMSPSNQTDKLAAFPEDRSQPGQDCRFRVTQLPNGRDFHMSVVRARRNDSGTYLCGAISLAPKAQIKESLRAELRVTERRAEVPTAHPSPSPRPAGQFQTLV
# Protocol: (§1) Experimental study of nonspecific binding of bispecific chimeric antibodies to non-target antigens was performed on Forte Bio Octert RED 384. Protein A (ProA) biosensors (ForteBio) were immersed into a solution containing antibodies at a concentration of 10 μg/ml for 150 seconds to immobilize same. The baseline was recorded in a 1×KB solution for 30 seconds. The antibody-loaded sensors were then immersed into wells containing non-target antigens at a concentration of 30 μg/ml for 150 seconds. Complex dissociation was then recorded for 30 seconds.
# (§2) The reference sensors went through all the steps as the sensors used to record analyte sensograms did, with the exception of the association step—at the association step, the sensors were immersed in a kinetic buffer solution without analyte (the reference sensor signals were measured in parallel with the recording of the main sensograms). The reference signal was subtracted from the signal received on sensors interacting with the analyte during the processing of sensograms.
# (§3) Sensograms were processed using ForteBio Octet Data Analysisn 9.0 software. To report no non-specific interaction, the recorded signal level was checked at the end of the association step (the response parameter).
# [3] = molecular target: T3, extracellular domain of the human PD-1 …; test: BLI Octet RED 384; antibody on ProA sensor, antigen in solution; 1:1 global fit
# Protocol: (§4) The experiments were carried out using a kinetic buffer solution (hereinafter referred to as 1×KB) having the following formulation: 4.3 mM Na₂HPO₄; 136.9 mM NaCl, 1.5 mM KH₂PO₄; 2.7 mM KCl; the volume fraction of the added Tween 20 was 0.1%; the mass fraction of the added BSA (bovine serum albumin) was 0.1%; pH 7.4. Before the measurement, the ProA sensors were regenerated with a solution of 50 mM glycine and hydrochloric acid, pH 1.8 (5 seconds in the regenerating solution, 5 seconds in 1×KB, three repetitions). In the case of the hPD1ex-H6F and hCSF1R_His antigens, the Protein A (ProA) biosensors (ForteBio) were immersed in a solution with antibodies at a concentration of 10 μg/ml for 60 seconds to immobilize same. The baseline was recorded in 1×KB for 60 seconds. The sensors loaded with the antibody were then immersed into wells containing a solution of the target antigen (analyte) in a kinetic buffer for 90 seconds. Measurements were performed for solutions with hPDlex-H6F analyte at concentrations of 2.50 μg/ml (121.4 nM), 1.25 μg/ml (60.7 nM), 0.625 μg/ml (30.35 nM). […] Then we detected complex dissociation in 1×KB for 210 s for hPDlex-H6F, 300 s for hCSF1R_His.
# (§5) All measurements were carried out at 30° C., orbital mixing speed was 1,000 revolutions per minute.
# (§6) To obtain numerical values of kinetic constants (kₒₙ is the on/association rate constant, kdis is the dissociation rate constant, KD is the equilibrium dissociation constant or affinity constant), the resulting sensograms were processed according to the 1:1 interaction model using Global Fit (selection of one set of kon, kdis, KD constants to analyze several sensograms of different concentrations) of the ForteBio Octet Data Analysis 9.0 software.
# [4] = molecular target: T4, extracellular domain of the human CSF1R protein (hCSF1R_His) (Homo sapiens, UniProt P07333 20-512); test: as above
# T4 construct: range 20-512; Molecular weight 57.4 kDa; made in CHO cells; also called hCSF1_His; not shown: C-terminal His and FLAG tags
# T4 sequence (P07333 20-512 limits assumed): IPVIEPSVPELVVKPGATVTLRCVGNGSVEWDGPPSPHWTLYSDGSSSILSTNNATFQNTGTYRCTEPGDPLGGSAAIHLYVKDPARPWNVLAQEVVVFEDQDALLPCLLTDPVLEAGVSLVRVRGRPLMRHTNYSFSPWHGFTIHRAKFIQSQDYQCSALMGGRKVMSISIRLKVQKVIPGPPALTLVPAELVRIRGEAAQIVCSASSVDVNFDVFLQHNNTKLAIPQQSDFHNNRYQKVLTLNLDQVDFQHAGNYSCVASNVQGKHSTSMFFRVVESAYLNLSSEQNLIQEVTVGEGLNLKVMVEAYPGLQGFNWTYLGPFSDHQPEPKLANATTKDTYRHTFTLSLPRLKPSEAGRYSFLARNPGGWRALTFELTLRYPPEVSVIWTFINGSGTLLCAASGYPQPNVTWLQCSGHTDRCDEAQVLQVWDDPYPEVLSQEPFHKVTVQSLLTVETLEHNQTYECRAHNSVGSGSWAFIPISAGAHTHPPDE
# Protocol: as §4, §5, §6
# [5] = molecular target: T2, hIL4R-His, Interleukin-4 receptor …; test: BLI Octet RED 384; antibody on ProA sensor, antigen 30 ug/ml (1154 nM); response at end of association
# Protocol: as §1, §2, §3
# [6] = molecular target: T5, biotinylated peptide [NH2]…JQS[CH2CH2]biotin comprising a fragment of the human CD20 sequence (human, [NH2] at the N-terminus; [CH2CH2]biotin at the C-terminus; the letter J at position 20 is printed so and is not a standard residue code); test: BLI Octet RED 384; biotinylated peptide on SAX sensor, antibody in solution; 1:1 global fit
# T5 construct: also called CD20 peptide
# T5 sequence (peptide, as listed by the source): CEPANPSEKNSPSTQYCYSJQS
# Protocol: In the case of the biotinylated CD20 peptide, the peptide at a concentration of 5 μg/ml was immobilized on the surface of SAX sensors (High Precision Streptavidin (SAX) biosensors, ForteBio) for 120 seconds. The baseline was recorded in a 1×KB solution for 120 seconds. The sensors containing the loaded peptide were immersed into wells containing the antibody solution (analyte) in 1×KB for 15 seconds. Measurements were carried out for solutions with analyte (antibodies in the case of CD20 peptide) at concentrations of 150 μg/ml, 75 μg/ml, 37.5 μg/ml. Complex dissociation was recorded in 1×KB for 120 seconds.
# as §5, §6
binder,measurement,setting,value
"02-006, bivalent bispecific chimeric antibody that specifically binds to PD1 and CSF1R (bispecific antibody, human IgG1, kappa, L234A L235A, Produced in CHO cells) heavy 1: QVQLVQSGGGLVQPGGSLRLSCAASGFTFSSYWMYWVRQVPGKGLEWVSAIDTGGGRTYYADSVKGRFAISRVNAKNTMYLQMNSLRAEDTAVYYCARDEGGGTGWGVLKDWPYGLDAWGQGTLVTVSSASTKGPSVFPLAPSSKSTSGGTAALGCLVKDYFPEPVTVSWNSGALTSGVHTFPAVLQSSGLYSLSSVVTVPSSSLGTQTYICNVNHKPSNTKVDKRVEPKSCDKTHTCPPCPAPEAAGGPSVFLFPPKPKDTLYITREPEVTCVVVDVSHEDPEVKFNWYVDGVEVHNAKTKPREEQYNSTYRVVSVLTVLHQDWLNGKEYKCKVSNKALPAPIEKTISKAKGQPREPQVCTLPPSRDELTKNQVSLSCAVKGFYPSDIAVEWESNGQPENNYKTTPPVLDSDGSFFLVSKLTVDKSRWQQGNVFSCSVMHEALHNHYTQKSLSLSPGK light 1: QPVLTQPLSVSVALGQTARITCGGNNIGSKNVHWYQQKPGQAPVLVIYRDSNRPSGIPERFSGSNSGNTATLTISRAQAGDEADYYCQVWDSSTAVFGTGTKLTVLQRTVAAPSVFIFPPSDEQLKSGTASVVCLLNNFYPREAKVQWKVDNALQSGNSQESVTEQDSKDSTYSLSSTLTLSKADYEKHKVYACEVTHQGLSSPVTKSFNRGEC heavy 2: not shown light 2: QAGLTQPPSVSVAPGQTARITCGGNNIGSKSVHWYQQKPGQAPVLVVYGDSDRPSGIPERFSGSNSGNTATLTISRVEAGDEADYYCQVWDISSDHVVFGGGTQLTVLQRQVKPEAWLSSGPSPGPGRLQLVCHVSGFYPKPVWVMWMRGEQEQQGTQLGDILPNANWTWYLRATLDVADGEAAGLSCRVKHSSLEGQDIILYWRGSC",binding result,[1],no binding (tested: 757.6 nM)
same,Signal level (nm),[2],0.144 nm
same,Kd,[3],2.51 nM
same,koff,[3],0.000691 s⁻¹
same,kon,[3],275000 M⁻¹ s⁻¹
same,Kd,[4],0.797 nM
same,koff,[4],0.000286 s⁻¹
same,kon,[4],359000 M⁻¹ s⁻¹
same,Signal level (nm),[5],-0.0075 nm
"02-007, bivalent bispecific chimeric antibody that specifically binds to PD1 and CSF1R (bispecific antibody, human IgG1, kappa, L234A L235A, Produced in CHO cells) heavy 1: QVQLVESGGGLVRPGGSLRLSCAASEFTFDDYAMSWVRQAPGKGLEWVSAISWNGGSTNYADSVKGRFTISRDNAKNSLYLQMNSLRAEDTALYYCASTVEVAHRRLYKYLEVWGQGTLVTVSSASTKGPSVFPLAPSSKSTSGGTAALGCLVKDYFPEPVTVSWNSGALTSGVHTFPAVLQSSGLYSLSSVVTVPSSSLGTQTYICNVNHKPSNTKVDKRVEPKSCDKTHTCPPCPAPEAAGGPSVFLFPPKPKDTLYITREPEVTCVVVDVSHEDPEVKFNWYVDGVEVHNAKTKPREEQYNSTYRVVSVLTVLHQDWLNGKEYKCKVSNKALPAPIEKTISKAKGQPREPQVCTLPPSRDELTKNQVSLSCAVKGFYPSDIAVEWESNGQPENNYKTTPPVLDSDGSFFLVSKLTVDKSRWQQGNVFSCSVMHEALHNHYTQKSLSLSPGK light 1: QAGLTQPPSVSVAPGQTARITCGGNNIGSKSVHWYQQKPGQAPVLVVYGDSDRPSGIPERFSGSNSGNTATLTISRVEAGDEADYYCQVWDISSDHVVFGGGTQLTVLRTVAAPSVFIFPPSDEQLKSGTASVVCLLNNFYPREAKVQWKVDNALQSGNSQESVTEQDSKDSTYSLSSTLTLSKADYEKHKVYACEVTHQGLSSPVTKSFNRGEC heavy 2: not shown light 2: QPVLTQPLSVSVALGQTARITCGGNNIGSKNVHWYQQKPGQAPVLVIYRDSNRPSGIPERFSGSNSGNTATLTISRAQAGDEADYYCQVWDSSTAVFGTGTKLTVLQQRQVKPEAWLSSGPSPGPGRLQLVCHVSGFYPKPVWVMWMRGEQEQQGTQLGDILPNANWTWYLRATLDVADGEAAGLSCRVKHSSLEGQDIILYWRGSC",binding result,[1],no binding (tested: 757.6 nM)
same,Signal level (nm),[2],0.172 nm
same,Kd,[3],4.49 nM
same,koff,[3],0.00109 s⁻¹
same,kon,[3],242000 M⁻¹ s⁻¹
same,Kd,[4],0.831 nM
same,koff,[4],0.000314 s⁻¹
same,kon,[4],378000 M⁻¹ s⁻¹
same,Signal level (nm),[5],0.0051 nm
"02-008, bivalent bispecific chimeric antibody that specifically binds to CD20 and CSF1R (bispecific antibody, human IgG1, kappa, L234A L235A, Produced in CHO cells) heavy 1: EVQLVESGGGLVQPGGSLRLSCAASGYTFTSYNMHWVRQAPGKGLEWVGAIYPGNGDTSYNQKFKGRFTISVDKSKNTLYLQMNSLRAEDTAVYYCARVVYYSNSYWYFDVWGQGTLVTVSSASTKGPSVFPLAPSSKSTSGGTAALGCLVKDYFPEPVTVSWNSGALTSGVHTFPAVLQSSGLYSLSSVVTVPSSSLGTQTYICNVNHKPSNTKVDKRVEPKSCDKTHTCPPCPAPEAAGGPSVFLFPPKPKDTLYITREPEVTCVVVDVSHEDPEVKFNWYVDGVEVHNAKTKPREEQYNSTYRVVSVLTVLHQDWLNGKEYKCKVSNKALPAPIEKTISKAKGQPREPQVCTLPPSRDELTKNQVSLSCAVKGFYPSDIAVEWESNGQPENNYKTTPPVLDSDGSFFLVSKLTVDKSRWQQGNVFSCSVMHEALHNHYTQKSLSLSPGK light 1: DIQMTQSPSSLSASVGDRVTITCRASSSVSYMHWYQQKPGKAPKPLIYAPSNLASGVPSRFSGSGSGTDFTLTISSLQPEDFATYYCQQWSFNPPTFGQGTKVEIKRTVAAPSVFIFPPSDEQLKSGTASVVCLLNNFYPREAKVQWKVDNALQSGNSQESVTEQDSKDSTYSLSSTLTLSKADYEKHKVYACEVTHQGLSSPVTKSFNRGEC heavy 2: not shown light 2: QAGLTQPPSVSVAPGQTARITCGGNNIGSKSVHWYQQKPGQAPVLVVYGDSDRPSGIPERFSGSNSGNTATLTISRVEAGDEADYYCQVWDISSDHVVFGGGTQLTVLQRQVKPEAWLSSGPSPGPGRLQLVCHVSGFYPKPVWVMWMRGEQEQQGTQLGDILPNANWTWYLRATLDVADGEAAGLSCRVKHSSLEGQDIILYWRGSC",binding result,[1],no binding (tested: 757.6 nM)
same,Signal level (nm),[2],-0.0033 nm
same,Kd,[4],0.549 nM
same,koff,[4],0.000236 s⁻¹
same,kon,[4],429000 M⁻¹ s⁻¹
same,Signal level (nm),[5],-0.002 nm
same,Kd,[6],892 nM
same,koff,[6],0.329 s⁻¹
same,kon,[6],369000 M⁻¹ s⁻¹
